Laboratory results taken from patent US20190233808.

Target: FITC-labeled bovine type-1 collagen (Chondrex, Cat# 4001) (UniProt P02453)
Sequence (P02453 162-1217, chain 1 of 2): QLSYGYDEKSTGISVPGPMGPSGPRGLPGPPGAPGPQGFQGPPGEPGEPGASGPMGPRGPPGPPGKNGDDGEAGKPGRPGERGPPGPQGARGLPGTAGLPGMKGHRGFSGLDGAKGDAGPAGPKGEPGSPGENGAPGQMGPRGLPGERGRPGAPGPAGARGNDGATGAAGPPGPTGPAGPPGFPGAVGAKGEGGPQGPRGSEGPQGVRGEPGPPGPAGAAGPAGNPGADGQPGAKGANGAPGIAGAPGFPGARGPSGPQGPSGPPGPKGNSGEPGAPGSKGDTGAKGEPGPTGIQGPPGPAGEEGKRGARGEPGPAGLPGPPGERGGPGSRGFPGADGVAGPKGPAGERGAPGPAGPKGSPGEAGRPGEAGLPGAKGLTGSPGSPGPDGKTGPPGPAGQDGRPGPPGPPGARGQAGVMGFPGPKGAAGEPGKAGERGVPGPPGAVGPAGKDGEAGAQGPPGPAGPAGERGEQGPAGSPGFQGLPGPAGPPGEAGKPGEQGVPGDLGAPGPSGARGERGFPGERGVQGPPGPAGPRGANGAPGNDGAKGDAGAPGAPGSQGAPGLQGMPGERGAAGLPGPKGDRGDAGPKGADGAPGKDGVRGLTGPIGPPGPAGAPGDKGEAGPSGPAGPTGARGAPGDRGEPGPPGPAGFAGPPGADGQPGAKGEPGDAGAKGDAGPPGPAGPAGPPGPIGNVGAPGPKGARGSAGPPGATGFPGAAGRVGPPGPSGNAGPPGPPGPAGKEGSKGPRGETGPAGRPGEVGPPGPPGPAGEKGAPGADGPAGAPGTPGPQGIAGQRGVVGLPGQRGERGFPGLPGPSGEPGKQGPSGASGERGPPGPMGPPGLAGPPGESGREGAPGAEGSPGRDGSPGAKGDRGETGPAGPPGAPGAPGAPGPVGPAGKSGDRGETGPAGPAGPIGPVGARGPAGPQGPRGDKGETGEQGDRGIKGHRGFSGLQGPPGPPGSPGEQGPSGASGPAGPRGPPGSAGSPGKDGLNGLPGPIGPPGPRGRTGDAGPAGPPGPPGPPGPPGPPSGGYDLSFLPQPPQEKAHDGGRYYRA
Sequence (P02453 other isoform, or with tags, fused parts or gaps, chain 2 of 2): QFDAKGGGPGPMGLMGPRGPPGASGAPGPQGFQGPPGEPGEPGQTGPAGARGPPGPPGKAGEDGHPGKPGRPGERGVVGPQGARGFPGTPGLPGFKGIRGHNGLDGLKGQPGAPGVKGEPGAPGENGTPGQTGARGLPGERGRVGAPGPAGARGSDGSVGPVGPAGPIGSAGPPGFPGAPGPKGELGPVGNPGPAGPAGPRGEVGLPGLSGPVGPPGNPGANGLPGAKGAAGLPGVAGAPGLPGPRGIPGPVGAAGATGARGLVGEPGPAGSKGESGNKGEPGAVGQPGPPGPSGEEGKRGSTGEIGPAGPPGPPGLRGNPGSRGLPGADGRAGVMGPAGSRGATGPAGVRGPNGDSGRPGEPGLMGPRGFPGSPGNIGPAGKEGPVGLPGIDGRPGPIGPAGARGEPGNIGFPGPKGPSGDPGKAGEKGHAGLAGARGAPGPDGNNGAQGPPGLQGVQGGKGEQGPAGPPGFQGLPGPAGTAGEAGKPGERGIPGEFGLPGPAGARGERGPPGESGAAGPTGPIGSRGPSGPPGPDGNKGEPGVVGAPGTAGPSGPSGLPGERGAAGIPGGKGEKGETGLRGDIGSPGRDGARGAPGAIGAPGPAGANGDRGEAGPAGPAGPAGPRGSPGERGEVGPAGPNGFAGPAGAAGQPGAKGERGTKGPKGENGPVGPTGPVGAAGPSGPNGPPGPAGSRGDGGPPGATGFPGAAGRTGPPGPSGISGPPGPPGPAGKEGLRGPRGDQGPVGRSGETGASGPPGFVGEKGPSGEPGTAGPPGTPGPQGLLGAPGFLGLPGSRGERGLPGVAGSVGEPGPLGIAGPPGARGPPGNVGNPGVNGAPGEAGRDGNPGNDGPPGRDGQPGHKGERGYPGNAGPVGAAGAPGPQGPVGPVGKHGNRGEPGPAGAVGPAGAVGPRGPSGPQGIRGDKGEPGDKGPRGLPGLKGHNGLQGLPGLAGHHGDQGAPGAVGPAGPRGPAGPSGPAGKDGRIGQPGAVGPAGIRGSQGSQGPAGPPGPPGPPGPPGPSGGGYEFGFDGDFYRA

trypsin (TPCK-treated)
collagen degradation on SDS PAGE: did not show degradation of type-1 collagen
